The record followed here is PMC3162016.

Test [1] addresses H-Ara h 2/6 (native Ara h 2/6 heated for 15 min to 110°C alone). Kind of test: SEC; Superdex-75 column on an Äkta Basic FPLC, calibrated with gel filtration molecular weight standards; Ara h 2/6 before and after heating for 15 min at 110°C in the presence or absence of glucose.
The target of test [2] is G-Ara h 2/6 (native Ara h 2/6 heated for 15 min to 110°C in the presence of 100 mM glucose). The test is described as above.

Take “H-Ara h 2/6 (native Ara h 2/6 heated for 15 min to 110°C alone)”: the percent of the protein remaining monomeric in test [1] was determined as 20%.

For “G-Ara h 2/6 (native Ara h 2/6 heated for 15 min to 110°C in the presence of 100 mM glucose)”, the percent of the protein remaining monomeric in test [2] was 20%.
